T1: BZU2/ZmMUTE-ΔC (Zea mays, UniProt K7V1X7 1-189)
T1 sequence: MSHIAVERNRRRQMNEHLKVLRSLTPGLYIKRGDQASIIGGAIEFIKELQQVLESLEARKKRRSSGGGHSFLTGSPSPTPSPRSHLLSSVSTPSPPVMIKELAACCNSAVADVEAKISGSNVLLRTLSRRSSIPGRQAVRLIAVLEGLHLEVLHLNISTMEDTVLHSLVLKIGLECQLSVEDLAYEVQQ


Target: T1, BZU2/ZmMUTE-ΔC
Experiment: EMSA; cold probe competitor 2-, 5-, 10-fold; LightShift Chemiluminescent EMSA Kit (Thermo) per manufacturer; buffer, salt, pH and temperature not stated
Conditions: protein: recombinant; chain copies: 2; label: 5' biotin (cold probe unlabeled); blunt

Row | Binder | binding result
1 | P1 (PAN1 promoter E-box -27) (dsDNA) DNA 1: GAATGAGGGGCACCTGGAGAGCACAT DNA 2: ATGTGCTCTCCAGGTGCCCCTCATTC | binds
2 | P2 (PAN2 promoter E-boxes -187, -200) (dsDNA) DNA 1: CAGCCACAACAGGTGTCCCTTTCAAGTGATCTCTGCA DNA 2: TGCAGAGATCACTTGAAAGGGACACCTGTTGTGGCTG | binds

From article PMC6738654, “BZU2/ZmMUTE controls symmetrical division of guard mother cell and specifies neighbor cell fate in maize”
